As a reminder, the Kd is the constant that tells how readily two partners part at equilibrium.

Results on four substances are retold here after PMC7116876, “Mechanistic Insights into Regulation of the ALC1 Remodeler by the Nucleosome Acidic Patch” (Cell reports, 2020).

The target of data set [1] is WT/WT nucleosome (Xenopus laevis histone octamer with intact acidic patches on Widom 601 DNA) (Xenopus laevis).
The target is the same in data set [2]. The source holds these as a separate data set.
Data set [3] addresses ALC1^RLS peptide-TAMRA (human). As to the kind of experiment: fluorescence polarisation; fluorescence anisotropy; 10 nM TAMRA-labelled peptide, nucleosomes without linker DNA titrated; 30°C; 15 mM HEPES pH 7.5, 1 mM EDTA, 5% glycerol, 1 mM DTT; quadratic fit. In general terms: Fluorescence polarisation rises when a labelled molecule tumbles more slowly, as on binding a larger partner.

In data set [4] the test system is T1, ALC1RLS peptide-TAMRA (Homo sapiens).
T1 sequence: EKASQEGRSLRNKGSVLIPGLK
As to the kind of experiment: fluorescence anisotropy. Conditions: Fluorescence anisotropy: 15 mM HEPES pH 7.5, 1 mM EDTA, 5% glycerol, 1 mM DTT, 10 nM peptide, 30 C.

Data set [5] addresses WT/WT nucleosome (Xenopus laevis histone octamer with intact acidic patches on Widom 601 DNA) (Xenopus laevis). Nature of the data set: cryo-EM structure; biotinylated ALC1 linker peptide at 10-fold molar excess over core nucleosomes (no linker DNA), cross-linked with 0.05% glutaraldehyde, purified on monomeric avidin; 15 mM HEPES pH 7.5, 50 mM NaCl, 1 mM DTT.

As for “ALC1^fl R611A/S612A/R860W (human ALC1 16-879) (from UniProt Q86WJ1 16-879) (enzyme)”, in data set [1], the Michaelis constant of remodeling of WT/WT nucleosomes (10 nM); factor of increase against ALC1^fl R860W was found to be 5.3 fold; the maximum rate of remodeling of WT/WT nucleosomes (10 nM); factor of decrease against ALC1^fl R860W was 6.4 fold; the nucleosome-stimulated ATPase rate under saturating conditions (Vmax estimated); fold reduction against ALC1^fl R860W was 2 fold; the nucleosome-stimulated ATPase rate, 20 μM remodeler, 2 μM WT/WT nucleosomes; fold reduction against ALC1^fl R860W stood at 2.5 fold. In addition, the smFRET, average translocation pause duration on WT/WT nucleosomes with 3 bp of linker DNA; fold increase against ALC1^fl R860W in data set [2] is over 4 fold.

In the case of “WT/WT nucleosome (Xenopus laevis histone octamer with intact acidic patches on Widom 601 DNA) (complex)”, the dissociation constant Kd in data set [3] amounted to 1.1 µM.

In data set [4], WT/WT nucleosome 0-601-0 gave a Kd of 1.1 µM.

On to ALC1 linker peptide-Biotin, for which the stoichiometry N (peptides per nucleosome) in data set [5] turned out to be 2.
